According to EP4772193A1:

Columns and labels:
[1] = target: recombinant human soluble gpNMB (recombinant human gpNMB-FLAG-His) (human) (UniProt Q14956); assay: antigen ELISA
[2] = target: recombinant human soluble gpNMB (recombinant human gpNMB-FLAG-His) (human) (UniProt Q14956); assay: antigen ELISA, vs hGPN06-1_H1L1

EC50 [1]	Relative binding activity [2]	Binder
25.3 nM	0	hGPN06-1_H1L1 VL Y93A (antibody, V domains shown) VH: QVQLVQSGAEVKKPGASVKVSCKASGYTFTDNWMGWVKQRPGQGLEWIGAIDPSDSFTNYNQNFKGRVTMTVDTSISTAYMELSRLRSDDSAVYFCTRSGYYGSPKLGGDYWGQGTLVTVSS VL: EIVLTQSPSSLSASVGDRVTITCSASSSISYMHWYQQKSGTAPKLLIYSTSNLASGVPSRFSGSGSGTDFTFTISSLQPEDAATYYCHQWNSAPCTFGGGTKLEIK
31.5 nM	0	hGPN06-1_H1L1 VH D55A (antibody, V domains shown) VH: QVQLVQSGAEVKKPGASVKVSCKASGYTFTDNWMGWVKQRPGQGLEWIGAIDPSASFTNYNQNFKGRVTMTVDTSISTAYMELSRLRSDDSAVYFCTRSGYYGSPKLGGDYWGQGTLVTVSS VL: EIVLTQSPSSLSASVGDRVTITCSASSSISYMHWYQQKSGTAPKLLIYSTSNLASGVPSRFSGSGSGTDFTFTISSLQPEDAATYYCHQWNSYPCTFGGGTKLEIK
